Data on 16 molecules can be found in US20160272683A1 (Novo Nordisk, published 2016).

To fix the notation:
T1: human amylin 3(a) receptor (human calcitonin receptor co-expressed with RAMP-3) on BHK570/CRE-luc cells (human, UniProt P30988 25-474; O60896 24-148)
T1 sequence (looked up) 1: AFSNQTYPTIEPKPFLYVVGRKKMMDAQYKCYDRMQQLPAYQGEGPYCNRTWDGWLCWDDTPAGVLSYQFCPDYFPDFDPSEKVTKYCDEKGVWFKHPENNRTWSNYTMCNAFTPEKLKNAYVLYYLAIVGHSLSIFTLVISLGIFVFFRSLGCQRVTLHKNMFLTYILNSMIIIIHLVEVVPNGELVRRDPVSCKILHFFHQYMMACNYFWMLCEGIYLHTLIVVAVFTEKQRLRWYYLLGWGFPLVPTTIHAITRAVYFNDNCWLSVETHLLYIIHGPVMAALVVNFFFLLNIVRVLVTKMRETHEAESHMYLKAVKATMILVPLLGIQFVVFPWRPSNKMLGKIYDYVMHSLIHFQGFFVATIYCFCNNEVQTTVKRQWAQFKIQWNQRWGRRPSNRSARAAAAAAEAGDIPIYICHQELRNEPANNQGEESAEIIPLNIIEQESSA
T1 sequence (looked up) 2: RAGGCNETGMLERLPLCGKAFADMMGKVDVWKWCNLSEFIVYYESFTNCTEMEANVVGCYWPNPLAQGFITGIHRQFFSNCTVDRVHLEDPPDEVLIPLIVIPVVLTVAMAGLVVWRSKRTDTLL

T2: human calcitonin receptor on BHK570/CRE-luc cells (human, UniProt P30988 25-474)
T2 sequence (looked up): T1 sequence (looked up) 1

B1: [N-terminal(C18 diacid-gGlu), des1, 30S, 31P]mimylin (peptide)
peptide: {C18 diacid-γGlu}-ASELSTAALGRLSAELHELATLPRTETGSPSP-NH2
SMILES: CC(C)C[C@H](NC(=O)[C@H](C)NC(=O)[C@H](C)NC(=O)[C@@H](NC(=O)[C@H](CO)NC(=O)[C@H](CC(C)C)NC(=O)[C@H](CCC(=O)O)NC(=O)[C@H](CO)NC(=O)[C@H](C)NC(=O)CC[C@H](NC(=O)CCCCCCCCCCCCCCCCC(=O)O)C(=O)O)[C@@H](C)O)C(=O)NCC(=O)N[C@@H](CCCNC(=N)N)C(=O)N[C@@H](CC(C)C)C(=O)N[C@@H](CO)C(=O)N[C@@H](C)C(=O)N[C@@H](CCC(=O)O)C(=O)N[C@@H](CC(C)C)C(=O)N[C@@H](Cc1c[nH]cn1)C(=O)N[C@@H](CCC(=O)O)C(=O)N[C@@H](CC(C)C)C(=O)N[C@@H](C)C(=O)N[C@H](C(=O)N[C@@H](CC(C)C)C(=O)N1CCC[C@H]1C(=O)N[C@@H](CCCNC(=N)N)C(=O)N[C@H](C(=O)N[C@@H](CCC(=O)O)C(=O)N[C@H](C(=O)NCC(=O)N[C@@H](CO)C(=O)N1CCC[C@H]1C(=O)N[C@@H](CO)C(=O)N1CCC[C@H]1C(N)=O)[C@@H](C)O)[C@@H](C)O)[C@@H](C)O
B2: [N-terminal(C14 diacid), des1, 30S, 31G]mimylin (peptide)
peptide: {C14 diacid}-ASELSTAALGRLSAELHELATLPRTETGSGSP-NH2
B3: [N-terminal(C20 diacid-gGlu), 23Y, 30S, 31G]mimylin (peptide)
peptide: {C20 diacid-γGlu}-EASELSTAALGRLSAELHELATYPRTETGSGSP-NH2
SMILES: CC(C)C[C@H](NC(=O)[C@H](C)NC(=O)[C@H](C)NC(=O)[C@@H](NC(=O)[C@H](CO)NC(=O)[C@H](CC(C)C)NC(=O)[C@H](CCC(=O)O)NC(=O)[C@H](CO)NC(=O)[C@H](C)NC(=O)[C@H](CCC(=O)O)NC(=O)CC[C@H](NC(=O)CCCCCCCCCCCCCCCCCCC(=O)O)C(=O)O)[C@@H](C)O)C(=O)NCC(=O)N[C@@H](CCCNC(=N)N)C(=O)N[C@@H](CC(C)C)C(=O)N[C@@H](CO)C(=O)N[C@@H](C)C(=O)N[C@@H](CCC(=O)O)C(=O)N[C@@H](CC(C)C)C(=O)N[C@@H](Cc1c[nH]cn1)C(=O)N[C@@H](CCC(=O)O)C(=O)N[C@@H](CC(C)C)C(=O)N[C@@H](C)C(=O)N[C@H](C(=O)N[C@@H](Cc1ccc(O)cc1)C(=O)N1CCC[C@H]1C(=O)N[C@@H](CCCNC(=N)N)C(=O)N[C@H](C(=O)N[C@@H](CCC(=O)O)C(=O)N[C@H](C(=O)NCC(=O)N[C@@H](CO)C(=O)NCC(=O)N[C@@H](CO)C(=O)N1CCC[C@H]1C(N)=O)[C@@H](C)O)[C@@H](C)O)[C@@H](C)O
B4: [des1, 16K(C20 diacid-gGlu), 30S, 31G]mimylin (peptide)
peptide: ASELSTAALGRLSAK([γGlu-C20 diacid])LHELATLPRTETGSGSP-NH2
modifications: N-terminus assumed
SMILES: CC(C)C[C@H](NC(=O)[C@H](C)NC(=O)[C@H](C)NC(=O)[C@@H](NC(=O)[C@H](CO)NC(=O)[C@H](CC(C)C)NC(=O)[C@H](CCC(=O)O)NC(=O)[C@H](CO)NC(=O)[C@H](C)N)[C@@H](C)O)C(=O)NCC(=O)N[C@@H](CCCNC(=N)N)C(=O)N[C@@H](CC(C)C)C(=O)N[C@@H](CO)C(=O)N[C@@H](C)C(=O)N[C@@H](CCCCNC(=O)CC[C@H](NC(=O)CCCCCCCCCCCCCCCCCCC(=O)O)C(=O)O)C(=O)N[C@@H](CC(C)C)C(=O)N[C@@H](Cc1c[nH]cn1)C(=O)N[C@@H](CCC(=O)O)C(=O)N[C@@H](CC(C)C)C(=O)N[C@@H](C)C(=O)N[C@H](C(=O)N[C@@H](CC(C)C)C(=O)N1CCC[C@H]1C(=O)N[C@@H](CCCNC(=N)N)C(=O)N[C@H](C(=O)N[C@@H](CCC(=O)O)C(=O)N[C@H](C(=O)NCC(=O)N[C@@H](CO)C(=O)NCC(=O)N[C@@H](CO)C(=O)N1CCC[C@H]1C(N)=O)[C@@H](C)O)[C@@H](C)O)[C@@H](C)O
B5: [N-terminal(C20 diacid-gGlu-OEG), des1, 30S, 31G]mimylin (peptide)
peptide: {C20 diacid-γGlu-AEEA}-ASELSTAALGRLSAELHELATLPRTETGSGSP-NH2
B6: [des1, 4K(C20 diacid-gGlu), 30S, 31G]mimylin (peptide)
peptide: ASK([γGlu-C20 diacid])LSTAALGRLSAELHELATLPRTETGSGSP-NH2
modifications: N-terminus assumed
SMILES: CC(C)C[C@H](NC(=O)[C@H](C)NC(=O)[C@H](C)NC(=O)[C@@H](NC(=O)[C@H](CO)NC(=O)[C@H](CC(C)C)NC(=O)[C@H](CCCCNC(=O)CC[C@H](NC(=O)CCCCCCCCCCCCCCCCCCC(=O)O)C(=O)O)NC(=O)[C@H](CO)NC(=O)[C@H](C)N)[C@@H](C)O)C(=O)NCC(=O)N[C@@H](CCCNC(=N)N)C(=O)N[C@@H](CC(C)C)C(=O)N[C@@H](CO)C(=O)N[C@@H](C)C(=O)N[C@@H](CCC(=O)O)C(=O)N[C@@H](CC(C)C)C(=O)N[C@@H](Cc1c[nH]cn1)C(=O)N[C@@H](CCC(=O)O)C(=O)N[C@@H](CC(C)C)C(=O)N[C@@H](C)C(=O)N[C@H](C(=O)N[C@@H](CC(C)C)C(=O)N1CCC[C@H]1C(=O)N[C@@H](CCCNC(=N)N)C(=O)N[C@H](C(=O)N[C@@H](CCC(=O)O)C(=O)N[C@H](C(=O)NCC(=O)N[C@@H](CO)C(=O)NCC(=O)N[C@@H](CO)C(=O)N1CCC[C@H]1C(N)=O)[C@@H](C)O)[C@@H](C)O)[C@@H](C)O
B7: [N-terminal(C20 diacid-gGlu-4xOEG), des1, 30S, 31G]mimylin (peptide)
peptide: {C20 diacid-γGlu-AEEA-AEEA-AEEA-AEEA}-ASELSTAALGRLSAELHELATLPRTETGSGSP-NH2
B8: [N-terminal(C20 diacid-gGlu-3xOEG), des1, 30S, 31G]mimylin (peptide)
peptide: {C20 diacid-γGlu-AEEA-AEEA-AEEA}-ASELSTAALGRLSAELHELATLPRTETGSGSP-NH2
B9: [N-terminal(C20 diacid-gGlu), des1, 30S, 31G]mimylin (peptide)
peptide: {C20 diacid-γGlu}-ASELSTAALGRLSAELHELATLPRTETGSGSP-NH2
B10: [N-terminal(C16 diacid), des1, 30S, 31G]mimylin (peptide)
peptide: {C16 diacid}-ASELSTAALGRLSAELHELATLPRTETGSGSP-NH2
B11: [N-terminal(C16 diacid-gGlu), des1, 30S, 31G]mimylin (peptide)
peptide: {C16 diacid-γGlu}-ASELSTAALGRLSAELHELATLPRTETGSGSP-NH2
B12: [N-terminal(C20 diacid-gGlu-5xOEG), des1, 30S, 31G]mimylin (peptide)
peptide: {C20 diacid-γGlu-AEEA-AEEA-AEEA-AEEA-AEEA}-ASELSTAALGRLSAELHELATLPRTETGSGSP-NH2
B13: [N-terminal(C18 diacid), des1, 30S, 31G]mimylin (peptide)
peptide: {C18 diacid}-ASELSTAALGRLSAELHELATLPRTETGSGSP-NH2
B14: [N-terminal(C18 diacid-gGlu), des1, 30S, 31G]mimylin (peptide)
peptide: {C18 diacid-γGlu}-ASELSTAALGRLSAELHELATLPRTETGSGSP-NH2
B15: [N-terminal(C14 diacid-gGlu), des1, 30S, 31G]mimylin (peptide)
peptide: {C14 diacid-γGlu}-ASELSTAALGRLSAELHELATLPRTETGSGSP-NH2
B16: [N-terminal(C20 diacid-gGlu-2xOEG), des1, 30S, 31G]mimylin (peptide)
peptide: {C20 diacid-γGlu-AEEA-AEEA}-ASELSTAALGRLSAELHELATLPRTETGSGSP-NH2

Numbered stars: 1 amine (or outer) side, 2 acyl side, 3 side chain; on linkers, the order of the positions; unused ones are H or OH. Side chains are listed from the residue outwards. Ends that are not written are not given here. * marks the point of attachment. C20 diacid = O=C(O)CCCCCCCCCCCCCCCCCCC(=O)*; C18 diacid = O=C(O)CCCCCCCCCCCCCCCCC(=O)*; C16 diacid = O=C(O)CCCCCCCCCCCCCCC(=O)*; γGlu = O=C(O)[C@H](CCC(=O)[*:2])N[*:1]; C14 diacid = O=C(O)CCCCCCCCCCCCC(=O)*; AEEA = NCCOCCOCC(=O)O

One experiment addresses T1, human amylin 3(a) receptor (human …). As to the kind of experiment: cell-based or functional assay.
Consider B1, for which the “hAmylin-R funct. EC50 (pM), tested with HSA” value (shortened to “hAmylin-R funct. EC50 (pM)”) was found to be 39 pM.
Still for that read-out and setting: the result for B2 reads 6 pM; that for B3, 143 pM.
Still for that read-out and setting: the value for B4 was 57 pM; that for B5 was 73 pM.
Still for that read-out and setting: the value for B6 was 74 pM.
Consider B7, for which the “hAmylin-R funct. EC50 (pM)” value turned out to be 62 pM.
On the same count and under the same terms, the result for B8 reads 68 pM; that for B9, 51 pM.
B10: the “hAmylin-R funct. EC50 (pM)” value is 4 pM.
In the case of B11, the “hAmylin-R funct. EC50 (pM)” value was determined as 4 pM.
Regarding B12, the “hAmylin-R funct. EC50 (pM)” value worked out at 66 pM.
B13: the “hAmylin-R funct. EC50 (pM)” value is 9 pM.
As for B14, the “hAmylin-R funct. EC50 (pM)” value came to 26 pM.
As to B15, the “hAmylin-R funct. EC50 (pM)” value turned out to be 4 pM.
B16: the “hAmylin-R funct. EC50 (pM)” value turned out to be 67 pM.

The target of another experiment is T2, human calcitonin receptor on …. Put plainly: cell-based or functional assay.
As for B1, the “hCTR funct. EC50 (pM), tested with HSA” value was found to be 19 pM.
The same measure, in the same setting: the result for B2 reads 4 pM; that for B3, 74 pM; that for B4, 48 pM.
Take B5: the “hCTR funct. EC50 (pM), tested with HSA” value was 30 pM.
Take B6: the “hCTR funct. EC50 (pM), tested with HSA” value worked out at 30 pM.
Same read-out and setting: the value for B7 was 25 pM; that for B8 was 25 pM.
B9: the “hCTR funct. EC50 (pM), tested with HSA” value was found to be 29 pM.
As for B10, the “hCTR funct. EC50 (pM), tested with HSA” value was determined as 3 pM.
Consider B11, for which the “hCTR funct. EC50 (pM), tested with HSA” value worked out at 2 pM.
In the case of B12, the “hCTR funct. EC50 (pM), tested with HSA” value was 27 pM.
On to B13, for which the “hCTR funct. EC50 (pM), tested with HSA” value was 8 pM.
On the same count and under the same terms, the value for B14 was 11 pM; that for B15 was 4 pM.
Still for that read-out and setting: the result for B16 reads 35 pM.
